The text below walks through data of patent US8173133B2, “Acyl pseudodipeptides which carry a functionalized auxiliary arm” (OM Pharma, priority 1999, dated 2012).

For one data set, the system named is murine macrophage cells. Briefly: nitric oxide production by murine macrophage cells (Griess). Format: cell-based, C57/BL6 mice. The text has this: Six-week old male C57/BL6 mice are killed by CO2 inhalation. The hip, femur, tibia and posterior appendage bones are removed. The bone marrow is extracted from the bone lumen by injecting Dulbecco's Modified Eagle Medium (DH medium) from the end portions which had been excised. The stem cells are washed and resuspended (approximate cell concentration 4000 cells/ml) in DH medium supplemented with 20% equine serum (SH) and 30% L929 cell supernatant. L929 is a murine fibroblast cell line the supernatant fluid of which is rich in growth factor for macrophage cells (M-CSF). The cell suspension is divided into Petri dishes which are incubated for 8 days in an incubator at 37° C. under 8% CO2 and a moisture saturated atmosphere.
After 8 days, the stem cells have differentiated into mature macrophage cells. The macrophage cells are scraped off by rapid cooling, washed and resuspended in DH medium supplemented with 5% foetal calf serum (FCS), amino acids and antibiotics. The cell density is adjusted to 700 000 cells/ml.
Products previously dissolved in DH medium supplemented with 5% FCS, amino acids and antibiotics are serially diluted directly in microtiter plates. The products are tested in triplicates and each microtiter plate comprises a negative control containing plain medium. The final volume in each well is 100 μl.
100 μl of cell suspension are added to diluted solutions of such products and the cells are incubated for 22 hours in an incubator at 37° C., under 8% CO2 and a moisture saturated atmosphere. At the end of the incubation period with the products, 100 μl of supernatant are withdrawn and the nitrite concentration is determined by running a Griess reaction.
100 μl of Griess reagent (5 mg/ml of sulfanilamide+0.5 mg/ml of N-(1-naphtylethylene diamine hydrochloride)) in 2.5% aq. phosphoric acid, are added to each well. The microtiter plates are read with a spectrophotometer at 562 nm wavelength against a reference sample at 690 nm. The nitrite concentration is proportional to nitric oxide content being formed. The nitrite content is determined based on a standard curve.
The results are given as mean value±standard deviation and plotted as a dose versus response curve.
From this dose versus response curve, 3 curve variables are computed:
Max: maximum curve amplitude and corresponding concentration
EC50: concentration corresponding to 50% of maximum amplitude
Min: lowest concentration inducing a significant proliferation corresponding to the blank±3× standard deviation value
Concentration values corresponding to EC50 and Min are determined from line segments joining different points on the curve.
If the curve has no plateau phase but an ascending configuration for the highest concentration being tested, a “>” sign is shown before “Max” and “EC50” values.
In general terms: Griess reagent forms a coloured azo dye with nitrite.

The subject of data set [1] is human peripheral blood mononuclear cells. Briefly: α TNF production by human peripheral blood mononuclear cells. Format: cell-based. To be noted: 18 hours. Here is the method:
Mononuclear cells of peripheral blood are recovered from buffy coats of 6 healthy donors. Such buffy coat cells are resuspended and mononuclear cells are isolated by centrifugation on a Ficoll-Paque gradient (Amersham Pharmacia). Purified mononuclear cells are resuspended into RPMI-1640 medium supplemented with 10% FCS, antibiotics, mercaptoethanol and L-glutamine. Cell concentration is adjusted to 2×10^6 viable cells/ml
100 μl of each one of these solutions of acyl dipeptide-like compounds bearing an accessory functional side chain spacer, diluted 100-, 10- or 1-fold in RPMI medium 1640, are dispensed into a microtiter plate. Samples are tested in triplicates, and each microtiter plate includes a negative control made up of plain medium. Dilutions of E. coli LPS (ranging grom 1 to 0.00001 μg/ml) are used as a positive control.
100 μl of the cell suspension are added to each well containing product dilute solutions or control. Cells are incubated with the products for 18 hours in an incubator at 37° C., under 5% CO2 and a moisture saturated atmosphere.
At the end of the incubation period, microtiter plates are centrifuged, and the supernatant fluids are pooled and frozen at −80° C. as aliquots until time of ELISA assay.
Concentration of α TNF secreted by mononuclear cells is determined by chemiluminescent ELISA (QuantiGlo #QTAOO R&D kit). 4-fold supernatant fluid dilutions are dispensed into each well of the microtiter plate to which anti-αTNF antibodies are bound. The microtiter plate is incubated for 4 hours at room temperature. After washing, peroxidase-conjugated anti-human a TNF antibody is added. Following a 2 hour incubation period and thorough washing, a chemiluminescent substrate is added and chemilunescence is read after 20 minutes. α TNF content in the supernatant fluid is determined with respect to a standard curve covering the 7000 to 0.7 pg/ml range.
Results are expressed in pg/ml of α TNF produced. Results derive from an experiment representative of acyl-dipeptide-like compound activity

Data set [2] shares this test system. Briefly: inhibition of E. coli LPS-induced α TNF production in human peripheral blood mononuclear cells. Format: cell-based. Conditions: product 10 μg/ml. Here is the method: Mononuclear cells of peripheral blood are recovered from buffy coats of 6 healthy donors. Such buffy coat cells are resuspended and mononuclear cells are isolated by centrifugation on a Ficoll-Paque gradient (Amersham Pharmacia). Purified mononuclear cells are resuspended into RPMI-1640 medium supplemented with 10% FCS, antibiotics, mercaptoethanol and L-glutamine. Cell concentration is adjusted to 2×10^6 viable cells/ml.
Product mediated Inhibition is determined by preincubating those products with mononuclear cells, and adding, 1 hour later, serially diluted solutions of LPS capable of inducing α TFN production. […] E. coli LPS is serially diluted (10-fold dilution) to be in the range of 1 to 0.00001 μg/ml
50 μl of 10 μg/ml dilute product solutions in RPMI 1640 medium are dispensed into a microtiter plate. Each assay (10 μg/ml product concentration+dilute E. coli LPS) is run in triplicates and each microtiter plate includes a negative control comprised of plain medium. LPS-induced α TNF production (without inhibitor) is determined by adding E. coli LPS dilutions to RPMI medium.
100 μl of the cell suspension are added to each well containing dilutions of either product or control. Cells are incubated with the products for 1 hour in an incubator at 37° C., under 5% CO2 and a moisture saturated atmosphere.
At the end of the pre-incubation period, 50 μl of serially diluted solutions of E. coli LPS are added. Incubation of mononuclear cells with the product and LPS is extended for 18 hours. At the end of the cell activation period, the microtiter plates are centrifuged, and the supernatants are pooled and frozen at −80° C. as aliquots until time of ELISA assay.
Concentration of αTNF secreted by mononuclear cells is determined by chemiluminescent ELISA (QuantiGlo #QTAOO R&D kit). 4-fold dilutions of supernatant fluid are dispensed into each well of the microtiter plate to which anti-human αTNF antibodies are bound. The microtiter plate is incubated for 4 hours at room temperature. After washing, peroxidase-conjugated anti-human αTNF antibody is added. Following a 2 hour incubation period and a thorough washing, a chemiluminescent substrate is added and chemilunescence is read after 20 minutes. αTNF content in the supernatant fluid is determined with respect to a standard curve covering the 7000 to 0.7 pg/ml range.
Inhibition is characterized by the E. coli LPS concentration which elicits 50% production of α TNF during co-incubation in comparison to a control including only RPMI. This concentration increases as product inhibition activity becomes stronger. Knowing inhibition values of α TNF production, this concentration is given by calculating 100-(αTNF production induced by product and LPS)/(αTNF production induced by LPS alone)*100. From these inhibition data, concentration is determined by linear regression along the line segment which joins 2 LPS dilutions giving approx. 50% inhibition.
Product ability to inhibit α TNF production in mononuclear cells in response to LPS is further characterized by maximum inhibition. […] Results are calculated from a representative experience using all products.

The next data set has as its system Spleenic cells. Briefly: murine spleenic cell proliferation (3H-TdR take-up). In kind it is cell-based, CBA mice. Conditions: 5 μg/ml, one day of culture, positive control. Here is the method: Cell proliferation response is assessed by measuring triturated thymidine (^3H-TdR) take-up after 1 or 2 days of culture. Values reported in the table stand for the arithmetic mean±standard deviation of 4 cultures.

Data set [3] has as its system Limulus Amoebocyte Lysate.
The next data set concerns K562 cells. Briefly: activation of NK cell cytotoxicity against K562 target cells (LDH release). Format: cell-based, human. Here is the method:
PBMC were recovered from buffy coats according to the procedure previously described in example 4.6. […] Cells were incubated under such conditions for 24 hours. K562 cells (human leukemia cell line, ATCC #CCL 243, 20110-2209 Manassas (Va.), U.S.A.) were maintained in culture using RPMI medium containing 10% FCS and subjected to 2 passages per week.
In order to make cytotoxicity measurement, PBMC and K562 cells were washed twice in HBSS and resuspended in Phenol Red-free RPMI medium containing 5% FCS. PBMC were divided into a round bottom 96-well plate so as to achieve a PBMC/target ratio of 20/1, 10/1 and 5/1 in 50 μl volume. 5000 K562 cells (target) were added in each well using 50 μl of Phenol Red-free RPMI. Final volume was 100 μl. The plate was centrifuged to promote contact then incubated at 37° C. for 4 hours.
Cytotoxicity was assayed using a non radioactive CytoTox 96 kit based on measuring LDH release during cell lysis (kit #G1780, batch #124100, Promega, Madison, Wis.) according to the supplier's instructions.
The percentage of cytotoxicity was calculated according to the following equation: […]
(In general: Release of lactate dehydrogenase indicates damage to the cell membrane.)

“(3R,9R)-3-[(R)-3-dodecanoyloxytetradecanoylamino]-4oxo-5-aza-9-[(R)-3-hydroxytetradecanoylamino]-1,10-diol 1-dihydrogenphosphate 10-(6-aminohexanoate) [OM-197-MP-AC (R, R)]” registered a Max concentration in the data set with murine macrophage cells (concentration at maximum amplitude) of more than 100 µg/mL. This molecule also returned an EC50 conc with murine macrophage cells (concentration corresponding to 50% of maximum amplitude) of more than 15.32 µg/mL. The Min concentration with murine macrophage cells (lowest concentration inducing a significant response) came out at 3.35 µg/mL. Also, the “α TNF produced” value is 0 pg/mL in data set [1] (product 1 μg/ml), 88 pg/mL in data set [1] (product 10 μg/ml) and 84 pg/mL in data set [1] (product 100 μg/ml). Also, in data set [2], the “max. Inhibition” value worked out at 100%. Besides, the “50% inhibition LPS” value in data set [2] (LPS concentration at which α TNF production is 50% of control) is 0.68 µg/mL. Besides, in data set [2] (LPS concentration corresponding to maximum inhibition), the “max. Inhibition LPS” value was 0.0013 µg/mL.
With Concanavalin A [reference compound], the thymidine take-up in the data set on Spleenic cells is recorded as 37.5±6.2 ×10^3 cpm.

B1: Ovalbumin: antigen alone (ovalbumin, Fluka AG) (protein, UniProt P01012 2-386, looked up)
Ovalbumin: GSIGAASMEFCFDVFKELKVHHANENIFYCPIAIMSALAMVYLGAKDSTRTQINKVVRFDKLPGFGDSIEAQCGTSVNVHSSLRDILNQITKPNDVYSFSLASRLYAEERYPILPEYLQCVKELYRGGLEPINFQTAADQARELINSWVESQTNGIIRNVLQPSSVDSQTAMVLVNAIVFKGLWEKAFKDEDTQAMPFRVTEQESKPVQMMYQIGLFRVASMASEKMKILELPFASGTMSMLVLLPDEVSGLEQLESIINFEKLTEWTSSNVMEERKIKVYLPRMKMEEKYNLTSVLMAMGITDVFSSSANLSGISSAESLKISQAVHAAHAEINEAGREVVGSAEAGVDAASVSEEFRADHPFLFCIKHIATNAVLFFGRCVSP
Consider B1, for which, in data set [3], the “LAL EU/mg” value is on record as less than 0.8 EU/mg and the “LAL ng of LPS equivalent per mg of product” value was <0.064 ng of LPS equivalent per mg of product.

B2: OM-197-FV-ovalbumin: OM-197-FV7 coupled to ovalbumin by reductive amination (conjugate, UniProt P01012 2-386, looked up)
Ovalbumin: GSIGAASMEFCFDVFKELKVHHANENIFYCPIAIMSALAMVYLGAKDSTRTQINKVVRFDKLPGFGDSIEAQCGTSVNVHSSLRDILNQITKPNDVYSFSLASRLYAEERYPILPEYLQCVKELYRGGLEPINFQTAADQARELINSWVESQTNGIIRNVLQPSSVDSQTAMVLVNAIVFKGLWEKAFKDEDTQAMPFRVTEQESKPVQMMYQIGLFRVASMASEKMKILELPFASGTMSMLVLLPDEVSGLEQLESIINFEKLTEWTSSNVMEERKIKVYLPRMKMEEKYNLTSVLMAMGITDVFSSSANLSGISSAESLKISQAVHAAHAEINEAGREVVGSAEAGVDAASVSEEFRADHPFLFCIKHIATNAVLFFGRCVSP
modifications: OM-197-FV coupled by reductive amination
Turning to B2, in data set [3], the “LAL EU/mg” value worked out at 99 EU/mg and the “LAL ng of LPS equivalent per mg of product” value is 8.21 ng of LPS equivalent per mg of product.

B3: IFN-γ: γ IFN (1000 U/ml) stimulus (protein, UniProt P01579 24-161, looked up)
Interferon gamma: QDPYVKEAENLKKYFNAGHSDVADNGTLFLGILKNWKEESDRKIMQSQIVSFYFKLFKNFKDDQSIQKSVETIKEDMNVKFFNSNKKKRDDFEKLTNYSVTDLNVQRKAIHELIQVMAELSPAAKTGKRKRSQMLFRG
With B3, the “% cytotoxicity” value in the data set with K562 cells (Ratio PBMC:K562 5.1) stood at 17.9%; with K562 cells (Ratio PBMC:K562 10.1) it was 29.4%; with K562 cells (Ratio PBMC:K562 20.1), 39.3%. Further, the “Optical density at 490 nm, K562 + PBMC” value with K562 cells (Ratio PBMC:K562 5.1) is recorded as 1.68; in the data set on K562 cells (Ratio PBMC:K562 10.1), 1.9; in the data set on K562 cells (Ratio PBMC:K562 20.1), 2.1. Moreover, the “Optical density at 490 nm, PBMC alone” value was 0.035 in the data set with K562 cells (Ratio PBMC:K562 5.1); 0.064 in the data set with K562 cells (Ratio PBMC:K562 10.1); 0.101 in the data set on K562 cells (Ratio PBMC:K562 20.1, stimulus 24 hours).
